{"source": "paper PMC6344880", "target": "40S subunits of uS9/S16-R143G, uS9/S16-R143E and uS9/S16-R144 strains (S. cerevisiae)", "assay": "co-sedimentation + cross-linking; formaldehyde cross-linking, whole cell extracts resolved on 10–30% sucrose gradients, Western blot of the 43/48S PIC (40S) fractions for eIF1, eIF2α and uS7, signals normalised to uS7; also in strains carrying the TIF5-G31R allele (Figure 6A), which reversed the accumulation of eIF2", "data": [{"substance": "eukaryotic initiation factor 1 (eIF1) (from UniProt P32911 1-108) (natural protein)", "values": [{"measurement": "fold increase of association against the wild-type strain", "result": "2.5 to 3", "unit": "fold"}]}]}
